Source: patent publication US20220127354A1 (Amgen, published 2022)
Numbering of substitutions follows the chain as printed. Names and notes keep the numbering of the source.

Tests used:
Test in all cases: flow cytometry, transfected 293T cells
[1] = target: huCDH19(44-772) with Flag tag (construct A, Hu EC1-5) (human, UniProt Q9H159 44-772)
Text: (§1) The experiment included assaying the anti-CDH19 antibodies against mouse Cadherin19 to determine suitability for binning on these human/mouse chimeras.

[2] = target: T1, huCDH19(44-141)::muCDH19(140-770) with Flag tag (construct B, Hu EC1) (human/mouse chimera)
T1 construct: leader left out; the entry starts at residue 44; also called C137897
Text: as §1

[3] = target: T2, huCDH19(44-249)::muCDH19(248-770) with Flag tag (construct C, Hu EC1-2) (human/mouse chimera)
T2 construct: leader left out; the entry starts at residue 44; also called C137896
Text: as §1

[4] = target: T3, muCDH19(44-139)::huCDH19(142-249)::muCDH19(248-770) with Flag tag (construct D, Hu EC2) (human/mouse chimera)
T3 construct: leader left out; the entry starts at residue 44; also called C137913
T3 chain: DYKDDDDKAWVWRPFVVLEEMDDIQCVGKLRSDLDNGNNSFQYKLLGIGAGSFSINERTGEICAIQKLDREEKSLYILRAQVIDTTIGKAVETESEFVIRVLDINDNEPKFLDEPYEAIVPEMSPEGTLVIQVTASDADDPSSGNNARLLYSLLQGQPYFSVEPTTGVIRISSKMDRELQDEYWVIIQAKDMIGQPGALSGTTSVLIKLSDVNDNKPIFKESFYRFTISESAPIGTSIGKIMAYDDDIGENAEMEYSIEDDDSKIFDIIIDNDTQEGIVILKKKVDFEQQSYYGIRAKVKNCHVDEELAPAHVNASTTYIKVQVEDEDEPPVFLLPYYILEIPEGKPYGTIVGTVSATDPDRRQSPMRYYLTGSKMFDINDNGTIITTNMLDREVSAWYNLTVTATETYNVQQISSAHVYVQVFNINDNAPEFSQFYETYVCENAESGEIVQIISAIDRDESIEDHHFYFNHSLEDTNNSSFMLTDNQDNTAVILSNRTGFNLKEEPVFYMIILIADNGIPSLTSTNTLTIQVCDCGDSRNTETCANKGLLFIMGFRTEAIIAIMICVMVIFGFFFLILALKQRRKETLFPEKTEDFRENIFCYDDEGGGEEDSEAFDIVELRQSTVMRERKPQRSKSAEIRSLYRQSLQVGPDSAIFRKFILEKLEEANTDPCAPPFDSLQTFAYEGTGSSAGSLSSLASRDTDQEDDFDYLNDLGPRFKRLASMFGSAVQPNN
Text: as §1

[5] = target: T4, muCDH19(44-139)::huCDH19(142-364)::muCDH19(363-770) with Flag tag (construct E, Hu EC2-3) (human/mouse chimera)
T4 construct: leader left out; the entry starts at residue 44; also called C137847
Text: as §1

[6] = target: T5, muCDH19(44-247)::huCDH19(250-364)::muCDH19(363-770) with Flag tag (construct F, Hu EC3) (human/mouse chimera)
T5 construct: leader left out; the entry starts at residue 44; also called C137911
Text: as §1

[7] = target: T6, muCDH19(44-362)::huCDH19(365-772) with Flag tag (construct G, Hu EC4-5) (human/mouse chimera)
T6 construct: leader left out; the entry starts at residue 44; also called C137917
T6 chain: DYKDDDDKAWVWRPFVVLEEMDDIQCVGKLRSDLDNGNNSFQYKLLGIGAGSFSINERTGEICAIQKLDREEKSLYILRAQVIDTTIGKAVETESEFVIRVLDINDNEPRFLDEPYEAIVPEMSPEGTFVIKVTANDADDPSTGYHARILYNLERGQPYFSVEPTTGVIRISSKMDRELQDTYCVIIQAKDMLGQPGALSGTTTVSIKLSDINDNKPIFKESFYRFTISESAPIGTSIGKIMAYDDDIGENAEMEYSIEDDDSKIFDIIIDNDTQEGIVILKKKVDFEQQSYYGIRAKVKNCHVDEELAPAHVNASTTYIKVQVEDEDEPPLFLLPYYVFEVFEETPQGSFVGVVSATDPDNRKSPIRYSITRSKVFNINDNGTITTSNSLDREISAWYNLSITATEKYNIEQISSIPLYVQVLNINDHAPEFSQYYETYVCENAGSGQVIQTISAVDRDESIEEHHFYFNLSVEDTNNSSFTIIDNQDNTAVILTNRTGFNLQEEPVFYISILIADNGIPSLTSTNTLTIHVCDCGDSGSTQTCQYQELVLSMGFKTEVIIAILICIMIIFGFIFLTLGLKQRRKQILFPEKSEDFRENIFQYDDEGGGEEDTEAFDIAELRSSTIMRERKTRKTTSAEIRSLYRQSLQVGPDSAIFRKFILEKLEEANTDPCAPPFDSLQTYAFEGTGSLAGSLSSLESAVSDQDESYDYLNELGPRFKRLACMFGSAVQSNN
Text: as §1

[8] = target: T7, muCDH19(44-461)::huCDH19(464-772) with Flag tag (construct H, Hu EC5) (human/mouse chimera)
T7 construct: leader left out; the entry starts at residue 44; also called C137915
T7 chain: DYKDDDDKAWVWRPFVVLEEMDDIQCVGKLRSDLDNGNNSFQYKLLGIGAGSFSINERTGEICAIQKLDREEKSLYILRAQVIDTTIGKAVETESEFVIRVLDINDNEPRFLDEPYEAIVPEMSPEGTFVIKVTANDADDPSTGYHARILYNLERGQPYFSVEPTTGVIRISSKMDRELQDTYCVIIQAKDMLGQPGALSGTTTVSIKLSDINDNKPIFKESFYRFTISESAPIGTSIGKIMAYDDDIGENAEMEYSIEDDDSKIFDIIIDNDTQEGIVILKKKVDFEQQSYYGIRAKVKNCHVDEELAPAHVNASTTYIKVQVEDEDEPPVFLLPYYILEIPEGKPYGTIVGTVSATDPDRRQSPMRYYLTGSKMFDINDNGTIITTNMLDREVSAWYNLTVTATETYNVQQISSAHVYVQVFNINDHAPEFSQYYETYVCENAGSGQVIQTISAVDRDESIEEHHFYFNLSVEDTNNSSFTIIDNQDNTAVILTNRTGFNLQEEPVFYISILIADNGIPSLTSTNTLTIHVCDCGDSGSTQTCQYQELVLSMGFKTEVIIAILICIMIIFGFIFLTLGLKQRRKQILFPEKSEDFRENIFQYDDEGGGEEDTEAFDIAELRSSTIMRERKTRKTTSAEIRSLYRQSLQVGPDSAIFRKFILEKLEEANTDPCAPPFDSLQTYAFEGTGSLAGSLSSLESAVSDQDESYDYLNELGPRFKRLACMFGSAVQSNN
Text: as §1

[9] = target: T8, muCDH19(44-770) with Flag tag (construct I, Mu EC1-5) (mouse)
T8 construct: leader left out; the entry starts at residue 44; also called Mo EC1-5; mouse Cadherin19
T8 chain: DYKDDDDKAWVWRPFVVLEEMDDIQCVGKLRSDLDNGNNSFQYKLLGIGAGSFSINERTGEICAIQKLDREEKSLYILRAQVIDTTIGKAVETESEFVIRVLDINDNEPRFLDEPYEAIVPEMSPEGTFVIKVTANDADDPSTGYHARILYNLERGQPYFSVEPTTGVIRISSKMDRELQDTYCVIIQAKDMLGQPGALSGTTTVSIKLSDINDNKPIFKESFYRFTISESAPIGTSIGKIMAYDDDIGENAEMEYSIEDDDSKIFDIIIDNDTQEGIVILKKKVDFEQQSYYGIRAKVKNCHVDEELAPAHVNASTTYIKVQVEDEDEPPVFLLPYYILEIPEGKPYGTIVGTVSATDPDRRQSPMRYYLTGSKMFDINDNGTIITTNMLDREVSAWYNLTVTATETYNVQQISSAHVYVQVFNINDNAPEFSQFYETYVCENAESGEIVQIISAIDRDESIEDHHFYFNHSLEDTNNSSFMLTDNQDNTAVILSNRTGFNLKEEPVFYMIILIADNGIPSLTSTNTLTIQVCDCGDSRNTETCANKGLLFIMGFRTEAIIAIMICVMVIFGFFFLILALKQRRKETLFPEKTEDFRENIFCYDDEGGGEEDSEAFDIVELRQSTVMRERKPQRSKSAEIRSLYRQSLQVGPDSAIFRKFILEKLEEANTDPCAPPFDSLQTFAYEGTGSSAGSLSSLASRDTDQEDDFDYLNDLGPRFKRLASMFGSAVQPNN
Text: as §1

Measured: binding result

B1: hu anti-<huCDH19> 2G6 (1-477)(R17G) VH::huIgG1z + 23A10.3 (1-231)(C42S) VL::huLLC-C2 (Ab ID 14304) (antibody, V domains shown)
VH: QVQLVESGGGVVQPGGSLRLSCAASGFTFSSYGMHWVRQAPGKGLEWVAFIWYDGSNKYYADSVKDRFTISRDNSKNTLYLQMKSLRAEDTAVYYCARRAGIIGTIGYYYGMDVWGQGTTVTVSS
VL: SYELTQPPSVSVSPGQTASITCSGDRLGEKYVSWYQQKPGQSPILVIYQDNKWPSGIPERFSGSNSGNTATLTISGTQAMDEADYYCQAWDSSTVVFGGGTKLTVLG
notes: light chain is that of 23A10.3 (C42S); Bin 4
binds: all assays above

B2: hu anti-<huCDH19> 2G6 (1-477)(R17G,D61E,D72E,K94N) VH::huIgG1z + 2G6 (1-234)(C42S,D110E) VL::huLLC-C1 (Ab ID 14039) (antibody, V domains shown)
VH: B1 VH with D54E, D62E, K84N
VL: B1 VL with V32T, K38R, I44L, N51T, W53R, D91E
notes: Engineered variant of 2G6; the entries already carry the changes; Bin 4
binds: all assays above
